# Results published in paper PMC2647316 (Nucleic Acids Research, 2008).
# T1: GkDnaC R120A (Geobacillus kaustophilus HTA426, UniProt Q5KU75 1-454, R120A)
# T1 sequence: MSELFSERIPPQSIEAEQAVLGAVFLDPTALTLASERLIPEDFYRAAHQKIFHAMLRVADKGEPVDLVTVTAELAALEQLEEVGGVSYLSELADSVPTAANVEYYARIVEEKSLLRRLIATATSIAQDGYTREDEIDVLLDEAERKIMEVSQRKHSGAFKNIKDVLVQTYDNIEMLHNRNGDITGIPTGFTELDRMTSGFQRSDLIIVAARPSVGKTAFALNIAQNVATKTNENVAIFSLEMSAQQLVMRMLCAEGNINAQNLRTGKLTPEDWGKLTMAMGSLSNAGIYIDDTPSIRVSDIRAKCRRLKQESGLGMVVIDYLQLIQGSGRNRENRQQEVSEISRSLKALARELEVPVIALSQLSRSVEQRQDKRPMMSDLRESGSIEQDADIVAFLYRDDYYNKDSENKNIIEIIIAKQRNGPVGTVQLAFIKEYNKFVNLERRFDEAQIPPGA
# T2: GkDnaC R330A (Geobacillus kaustophilus HTA426, UniProt Q5KU75 1-454, R330A)
# T2 sequence: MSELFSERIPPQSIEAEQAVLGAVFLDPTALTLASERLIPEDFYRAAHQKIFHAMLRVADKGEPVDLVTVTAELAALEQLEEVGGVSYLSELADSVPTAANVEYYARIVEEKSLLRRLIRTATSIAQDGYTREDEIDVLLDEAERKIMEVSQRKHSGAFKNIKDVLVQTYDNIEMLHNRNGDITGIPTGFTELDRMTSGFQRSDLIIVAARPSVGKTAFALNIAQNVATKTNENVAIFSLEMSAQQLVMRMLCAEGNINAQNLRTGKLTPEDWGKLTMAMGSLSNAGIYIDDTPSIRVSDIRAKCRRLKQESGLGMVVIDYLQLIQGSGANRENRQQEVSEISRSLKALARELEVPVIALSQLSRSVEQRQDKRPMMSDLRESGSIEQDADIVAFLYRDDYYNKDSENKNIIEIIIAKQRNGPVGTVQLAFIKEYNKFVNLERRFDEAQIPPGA
# T3: GkDnaC R145A (Geobacillus kaustophilus HTA426, UniProt Q5KU75 1-454, R145A)
# T3 sequence: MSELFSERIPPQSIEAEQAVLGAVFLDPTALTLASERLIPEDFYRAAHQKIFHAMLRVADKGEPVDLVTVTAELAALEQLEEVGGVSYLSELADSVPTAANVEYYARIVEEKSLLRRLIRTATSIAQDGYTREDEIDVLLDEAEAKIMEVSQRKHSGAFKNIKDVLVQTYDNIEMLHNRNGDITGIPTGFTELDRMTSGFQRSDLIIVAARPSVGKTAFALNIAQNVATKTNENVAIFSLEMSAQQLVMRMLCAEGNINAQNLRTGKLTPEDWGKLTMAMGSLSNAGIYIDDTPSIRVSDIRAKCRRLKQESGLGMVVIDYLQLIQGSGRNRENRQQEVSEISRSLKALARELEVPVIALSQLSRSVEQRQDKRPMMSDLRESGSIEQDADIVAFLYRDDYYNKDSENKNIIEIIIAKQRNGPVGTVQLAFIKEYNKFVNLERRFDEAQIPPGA
# T4: GkDnaC R344A (Geobacillus kaustophilus HTA426, UniProt Q5KU75 1-454, R344A)
# T4 sequence: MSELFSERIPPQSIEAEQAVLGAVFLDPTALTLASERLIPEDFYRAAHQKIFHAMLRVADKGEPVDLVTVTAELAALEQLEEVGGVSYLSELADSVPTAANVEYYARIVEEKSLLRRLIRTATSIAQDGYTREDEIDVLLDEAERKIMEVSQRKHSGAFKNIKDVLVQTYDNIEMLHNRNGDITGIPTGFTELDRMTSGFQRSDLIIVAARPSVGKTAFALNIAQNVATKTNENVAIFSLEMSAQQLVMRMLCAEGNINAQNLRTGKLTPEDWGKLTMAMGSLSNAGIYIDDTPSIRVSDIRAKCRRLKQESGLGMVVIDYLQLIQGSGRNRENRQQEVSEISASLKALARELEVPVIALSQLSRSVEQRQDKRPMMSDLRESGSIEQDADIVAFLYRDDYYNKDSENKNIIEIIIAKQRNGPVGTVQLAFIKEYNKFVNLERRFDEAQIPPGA
# Tests used:
# Test in all cases: SPR
# GkDnaC R120A = biological target: T1, GkDnaC R120A
# GkDnaC R330A = biological target: T2, GkDnaC R330A
# GkDnaC R145A = biological target: T3, GkDnaC R145A
# GkDnaC R344A = biological target: T4, GkDnaC R344A
binder,measurement,setting,value
TTTTTTTTTTTTTTTTTTTTTTTTTTTTTT (ssDNA) [5'Bio-(dT)30],Kd,GkDnaC R120A,1.73 µM
same,Kd,GkDnaC R330A,17.8 µM
same,Kd,GkDnaC R145A,1.39 µM
same,Kd,GkDnaC R344A,17.9 µM
